Measured values published in patent US7005285.

How the values were obtained:
[1] = biological target: myelin basic protein
[2] = biological target: histone H1

B1: human p21-activated kinase 5 (PAK5), full length, expressed in 293 cells from pcDNA3.1 myc-his (protein)
chain: MFGKKKKKIEISGPSNFEHRVHTGFDPQEQKFTGLPQQWHSLLADTANRPKPMVDPSCITPIQLAPMKTIVRGNKPCKETSINGLLEDFDNISVTRSNSLRKESPPTPDQGASSHGPGHAEENGFITFSQYSSESDTTADYTTEKYREKSLYGDDLDPYYRGSHAAKQNGHVMKMKHGEAYYSEVKPLKSDFARFSADYHSHLDSLSKPSEYSDLKWEYQRASSSSPLDYSFQFTPSRTAGTSGCSKESLAYSESEWGPSLDDYDRRPKSSYLNQTSPQPTMRQRSRSGSGLQEPMMPFGASAFKTHPQGHSYNSYTYPRLSEPTMCIPKVDYDRAQMVLSPPLSGSDTYPRGPAKLPQSQSKSGYSSSSHQYPSGYHKATLYHHPSLQSSSQYISTASYLSSLSLSSSTYPPPSWGSSSDQQPSRVSHEQFRAALQLVVSPGDPREYLANFIKIGEGSTGIVCIGTEKHTGKQVAVKKMDLRKQQRRELLFNEVVIMRDYHHDNVVDMYSSYLVGDELWVVMEFLEGGALTDIVTHTRMNEEQIATVCLSVLRALSYLHNQGVIHRDIKSDSILLTSDGRIKLSDFGFCAQVSKEVPKRKSLVGTPYWMAPELISRLPYGTEVDIWSLGIMVIEMIDGEPPYFNEPPLQAMRRIRDSLPPRVKDLHKVSSVLRGFLDLMLVREPSQRATAQELLGHPFLKLAGPPSCIVPLMRQYRHH
- kinase assay: incorporation of 32P from [gamma-32P]ATP into substrate, SDS gel and phosphoimager [1]: PAK5 is able to phosphorylate generic kinase substrates such as myelin basic protein and histone H1
- kinase assay: incorporation of 32P from [gamma-32P]ATP into substrate, SDS gel and phosphoimager [2]: PAK5 is able to phosphorylate generic kinase substrates such as myelin basic protein and histone H1
